Measurements: publication PMC11699347, “Heme regulates protein interactions and phosphorylation of BACH2 intrinsically disordered region in humoral response” (iScience, 2024)
Values belong to the binder of their own block, whether it stands above or below them.

Columns and labels:
His-FLAG-TBK1 = molecular target: T1, His-FLAG-TBK1 (mouse, UniProt Q9WUN2 1-729); experiment: pull-down; GST fusion on Glutathione Sepharose beads with purified His-FLAG-TBK1 or His-FLAG-DNMT1, with or without heme, 2 h at 4°C; 20 mM HEPES pH 7.0, 50 mM NaCl, 2 mM TCEP; immunoblot; conditions: both partners purified
T1 construct: An HRV 3C protease site follows the N-terminal FLAG-8xHis tag; also called FLAG-His-TBK1; recombinant mouse His-FLAG-TBK1; source: Sf9 insect cells (baculovirus), purified (FLAG-M2 agarose, G-25 spin column); not shown: FLAG, N-terminal, kept; 8xHis, N-terminal, kept
T1 sequence (looked up): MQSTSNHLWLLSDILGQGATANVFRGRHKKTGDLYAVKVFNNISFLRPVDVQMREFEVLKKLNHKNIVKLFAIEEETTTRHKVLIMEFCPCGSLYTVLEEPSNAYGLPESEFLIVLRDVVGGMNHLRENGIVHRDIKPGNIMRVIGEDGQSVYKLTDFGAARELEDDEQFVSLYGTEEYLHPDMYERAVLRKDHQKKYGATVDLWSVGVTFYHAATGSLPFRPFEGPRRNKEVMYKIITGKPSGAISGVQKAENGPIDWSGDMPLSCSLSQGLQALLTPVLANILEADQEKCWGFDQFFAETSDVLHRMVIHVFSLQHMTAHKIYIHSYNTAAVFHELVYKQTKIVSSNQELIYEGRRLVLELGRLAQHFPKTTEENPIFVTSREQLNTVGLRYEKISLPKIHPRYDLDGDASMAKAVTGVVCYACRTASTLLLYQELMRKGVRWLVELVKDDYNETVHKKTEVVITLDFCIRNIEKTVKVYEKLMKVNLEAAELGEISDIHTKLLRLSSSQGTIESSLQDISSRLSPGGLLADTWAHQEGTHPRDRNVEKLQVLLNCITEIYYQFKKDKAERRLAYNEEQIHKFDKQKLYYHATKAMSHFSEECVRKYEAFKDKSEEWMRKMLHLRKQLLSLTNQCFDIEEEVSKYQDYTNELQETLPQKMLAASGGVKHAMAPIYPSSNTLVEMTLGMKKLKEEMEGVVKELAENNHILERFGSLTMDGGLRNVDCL

GST-BACH2_331-839 = GST-BACH2_331-839 (UniProt P97303 331-839); experiment: EMSA; MafK presence not stated in the material; 32P-labeled ds probes, 30 min incubation, 4% polyacrylamide gel; buffer, salt, pH and temperature not stated; conditions: protein: recombinant; tags: N-terminal GST; label: 32P 5' end (PNK)

binding result (His-FLAG-TBK1): binds
B1: GST-BACH2-381-481 (domain or fragment, mouse, UniProt P97303 381-481, looked up)
chain: KTDYTPLAGNYGQPHVGQKDVSNFAMGSPLRGPGPETLCKQEGELDRRSVIFSASACDQPNTPVHSYSAVSNLDKDLSEPVPKSLWVGAGQSLPSSQAYSH
notes: made by PCR from pGEX6P1-BACH2-IDR; Cloned into pGEX-6P-1; source: E. coli KRX, purified (Glutathione Sepharose 4B)

binding result (His-FLAG-TBK1): binds
B2: GST-BACH2-IDR (domain or fragment, mouse, UniProt P97303 331-520, looked up)
chain: SRSVSSPSCLRSLFGITKGVESTGLPSTSQQPLVRSSACPFNKGISQGDLKTDYTPLAGNYGQPHVGQKDVSNFAMGSPLRGPGPETLCKQEGELDRRSVIFSASACDQPNTPVHSYSAVSNLDKDLSEPVPKSLWVGAGQSLPSSQAYSHSGLMADHLPGRIRPNTSCPVPIKVCPRSPPLETRTRTSS
notes: BACH2, mouse, intrinsically disordered region, amino acid region 331-520; Plasmid pGEX6P1-BACH2-IDR; also called recombinant BACH2-331-520 with GST kept; source: E. coli KRX, purified (Glutathione Sepharose 4B)

B3: Slc48a1-MARE (dsDNA)
DNA 1: GCACTCCACTTCTGACTCAGCATTTTGCAGCC
DNA 2: GGCTGCAAAATGCTGAGTCAGAAGTGGAGTGC
binding result (GST-BACH2_331-839): binds
